Series [1] deals with PaCsl4-exosome (Pyrococcus abyssi).
The target in series [2] is PaRrp4-exosome (Pyrococcus abyssi) (UniProt Q9V120).
The target in series [3] is RNase PH ring (PaRrp41-PaRrp42 complex) (Pyrococcus abyssi).
Series [4] concerns the target PaCsl4-exosome (Pyrococcus abyssi). The source holds these as a separate data set.
The target in series [5] is PaRrp4-exosome (Pyrococcus abyssi) (UniProt Q9V120). This is another data set of the same source.
The target of series [6] is T1, PaRrp41;PaRrp42;PaCsl4 (Pyrococcus abyssi;Pyrococcus …, UniProt Q9V119;Q9V118;Q9V2M2 1-249;1-274;1-199, ||).
T1 sequence 1: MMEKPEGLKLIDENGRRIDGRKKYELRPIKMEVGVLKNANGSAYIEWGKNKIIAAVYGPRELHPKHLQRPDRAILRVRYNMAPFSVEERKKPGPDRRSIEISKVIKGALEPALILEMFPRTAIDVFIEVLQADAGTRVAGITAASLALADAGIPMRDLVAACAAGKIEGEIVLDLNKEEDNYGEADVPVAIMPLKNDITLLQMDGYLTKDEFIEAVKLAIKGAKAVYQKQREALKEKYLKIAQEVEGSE
T1 sequence 2: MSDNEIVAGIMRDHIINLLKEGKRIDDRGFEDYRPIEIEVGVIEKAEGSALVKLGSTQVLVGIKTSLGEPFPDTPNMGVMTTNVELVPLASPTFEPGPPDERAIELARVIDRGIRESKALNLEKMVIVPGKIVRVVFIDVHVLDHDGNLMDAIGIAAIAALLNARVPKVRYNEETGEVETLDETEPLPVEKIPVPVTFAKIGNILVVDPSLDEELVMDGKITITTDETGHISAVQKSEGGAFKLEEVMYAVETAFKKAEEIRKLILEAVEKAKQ
T1 sequence 3: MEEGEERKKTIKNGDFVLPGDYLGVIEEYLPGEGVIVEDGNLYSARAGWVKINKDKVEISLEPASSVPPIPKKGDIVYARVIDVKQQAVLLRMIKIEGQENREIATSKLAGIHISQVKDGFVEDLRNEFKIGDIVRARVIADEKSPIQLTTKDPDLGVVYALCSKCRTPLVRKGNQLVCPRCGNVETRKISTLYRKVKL
Kind of series: EMSA; no phosphate added; 1 pmol RNA in 20 ul; 20 mM Tris-HCl pH 8.0, 20 mM KCl, 2 mM MgCl2, 1 mM DTT, 100 ug/ml BSA, 0.8 U RNasin (or conditions of earlier work, ref 21), 37 C, 30 min. The settings on record: protein: recombinant;recombinant;recombinant; tags: pET29a vector;pAE vector;pET28a vector; chain copies: 3;3;3; label: 5'-32P; single strand. A general note: A gel shift assay detects complexes by their altered migration in electrophoresis.

The target in series [7] is T2, PaSBDS (Pyrococcus abyssi, UniProt Q9V121 1-236). Kind of series: EMSA; 200 pmol; smear, low stability complex; 1 pmol RNA in 20 ul; 20 mM Tris-HCl pH 8.0, 20 mM KCl, 2 mM MgCl2, 1 mM DTT, 100 ug/ml BSA, 0.8 U RNasin (or conditions of earlier work, ref 21), 37 C, 30 min. The following applies: protein: recombinant; tags: pET-28a vector, Ni-NTA purified (His tag); label: 5'-32P; single strand.

Series [8] deals with T3, PaRrp41;PaRrp42;PaRrp4 (Pyrococcus abyssi;Pyrococcus …, UniProt Q9V119;Q9V118;Q9V120 1-249;1-274;1-265, ||).
T3 sequence 1: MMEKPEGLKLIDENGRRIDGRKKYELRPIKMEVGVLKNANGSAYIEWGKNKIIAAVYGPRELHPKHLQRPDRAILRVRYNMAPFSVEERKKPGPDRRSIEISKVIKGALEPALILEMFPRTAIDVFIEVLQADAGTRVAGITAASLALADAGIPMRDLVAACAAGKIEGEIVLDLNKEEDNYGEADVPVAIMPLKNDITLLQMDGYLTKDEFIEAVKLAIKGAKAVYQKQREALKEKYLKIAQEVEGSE
T3 sequence 2: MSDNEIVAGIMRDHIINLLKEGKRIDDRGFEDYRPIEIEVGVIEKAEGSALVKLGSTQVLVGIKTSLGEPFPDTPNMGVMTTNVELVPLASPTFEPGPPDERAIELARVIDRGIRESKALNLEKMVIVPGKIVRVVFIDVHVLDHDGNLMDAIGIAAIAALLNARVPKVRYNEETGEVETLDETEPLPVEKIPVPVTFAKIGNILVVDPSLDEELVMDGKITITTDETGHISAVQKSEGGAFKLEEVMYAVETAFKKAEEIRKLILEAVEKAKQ
T3 sequence 3: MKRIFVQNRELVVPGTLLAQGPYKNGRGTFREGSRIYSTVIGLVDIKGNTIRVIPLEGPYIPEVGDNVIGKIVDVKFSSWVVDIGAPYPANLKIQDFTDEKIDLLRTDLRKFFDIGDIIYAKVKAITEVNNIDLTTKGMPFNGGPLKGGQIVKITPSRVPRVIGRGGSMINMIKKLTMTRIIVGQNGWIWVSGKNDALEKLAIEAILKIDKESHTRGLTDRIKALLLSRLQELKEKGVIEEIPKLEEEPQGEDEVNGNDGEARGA
Kind of series: EMSA; no phosphate added; 9-fold vs PaCsl4-exosome; 1 pmol RNA in 20 ul; 20 mM Tris-HCl pH 8.0, 20 mM KCl, 2 mM MgCl2, 1 mM DTT, 100 ug/ml BSA, 0.8 U RNasin (or conditions of earlier work, ref 21), 37 C, 30 min. The following applies: protein: recombinant;recombinant;recombinant; tags: pET29a vector;pAE vector;; chain copies: 3;3;3; label: 5'-32P; single strand.

The target in series [9] is T4, PaRrp41;PaRrp42 (Pyrococcus abyssi;Pyrococcus abyssi, UniProt Q9V119;Q9V118 1-249;1-274, |).
T4 sequence 1: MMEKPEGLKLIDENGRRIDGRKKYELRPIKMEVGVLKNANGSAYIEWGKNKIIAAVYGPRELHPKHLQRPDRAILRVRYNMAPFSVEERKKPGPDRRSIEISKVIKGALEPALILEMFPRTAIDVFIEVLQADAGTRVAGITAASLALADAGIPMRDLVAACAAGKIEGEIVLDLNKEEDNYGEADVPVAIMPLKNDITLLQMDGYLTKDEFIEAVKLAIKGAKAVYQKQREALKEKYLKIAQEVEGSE
T4 sequence 2: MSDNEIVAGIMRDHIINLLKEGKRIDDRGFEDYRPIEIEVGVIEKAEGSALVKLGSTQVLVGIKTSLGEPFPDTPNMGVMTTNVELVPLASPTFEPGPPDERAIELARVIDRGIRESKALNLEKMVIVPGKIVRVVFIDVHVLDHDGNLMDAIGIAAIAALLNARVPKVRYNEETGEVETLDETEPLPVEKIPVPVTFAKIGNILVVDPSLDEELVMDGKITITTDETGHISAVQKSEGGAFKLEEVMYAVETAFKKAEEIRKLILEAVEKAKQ
The series can be described thus: EMSA; no phosphate added; PaRrp4-exosome binds 3-fold more efficiently; some RNA degradation; 1 pmol RNA in 20 ul; 20 mM Tris-HCl pH 8.0, 20 mM KCl, 2 mM MgCl2, 1 mM DTT, 100 ug/ml BSA, 0.8 U RNasin (or conditions of earlier work, ref 21), 37 C, 30 min. The settings on record: protein: recombinant;recombinant; tags: pET29a vector;pAE vector; chain copies: 3;3; label: 5'-32P; single strand.

Series [10] addresses T2, PaSBDS. The series can be described thus: EMSA; 50-400 pmol; 1 pmol RNA in 20 ul; 20 mM Tris-HCl pH 8.0, 20 mM KCl, 2 mM MgCl2, 1 mM DTT, 100 ug/ml BSA, 0.8 U RNasin (or conditions of earlier work, ref 21), 37 C, 30 min. The settings on record: protein: recombinant, tags: pET-28a vector, Ni-NTA purified (His tag), label: 5'-32P.
Series [11] has as its target T1, PaRrp41;PaRrp42;PaCsl4. Kind of series: EMSA; 10 mM NaH2PO4, 65 C, 15 min; 1 pmol RNA in 20 ul; 20 mM Tris-HCl pH 8.0, 20 mM KCl, 2 mM MgCl2, 1 mM DTT, 100 ug/ml BSA, 0.8 U RNasin (or conditions of earlier work, ref 21), 37 C, 30 min. The settings on record: protein: recombinant;recombinant;recombinant; tags: pET29a vector;pAE vector;pET28a vector; chain copies: 3;3;3; label: 5'-32P; can form intra- and inter-strand base pairs of low stability.

The target in series [12] is T3, PaRrp41;PaRrp42;PaRrp4. The description is as above. The settings on record: protein: recombinant;recombinant;recombinant; tags: pET29a vector;pAE vector;; chain copies: 3;3;3; label: 5'-32P; can form intra- and inter-strand base pairs of low stability.
The target of series [13] is T4, PaRrp41;PaRrp42. Kind of series: EMSA; 10 mM NaH2PO4, 65 C, 15 min; less efficient than holo-exosomes; 1 pmol RNA in 20 ul; 20 mM Tris-HCl pH 8.0, 20 mM KCl, 2 mM MgCl2, 1 mM DTT, 100 ug/ml BSA, 0.8 U RNasin (or conditions of earlier work, ref 21), 37 C, 30 min. The following applies: protein: recombinant;recombinant; tags: pET29a vector;pAE vector; chain copies: 3;3; label: 5'-32P; can form intra- and inter-strand base pairs of low stability.

On to PaNip7 (natural protein), for which the decrease in poly-rA binding by the exosome complex (EMSA, 1-20 pmol complex) in the presence of 100 pmol PaNip7 in [1] was found to be 20 fold; in series [2], 40 fold; in [3], 3 fold. In addition, the figures for the inhibition of the RNase activity on 14-mer poly-rA (1, 5 or 10 pmol complex, 65°C, 10 mM NaH2PO4) by 100 pmol PaNip7 in series [4] and in [5] were 6.1 fold and 3.8 fold, respectively.

AAAAAAAAAAAAAA (ssRNA) [poly-rA 14-mer]: the figures for the binding signal with PaRrp41;PaRrp42;PaCsl4 [6] and with PaRrp41;PaRrp42;PaRrp4 [8] were 9 fold less efficient than PaRrp4-exosome and 3 fold vs RNase PH ring, respectively. The binding result with PaSBDS [7] and in the series with PaRrp41;PaRrp42 [9] was “binds” throughout.

On to UUAUUAUUUAUUUAUUAUUUA (ssRNA) [poly-rAU 21-mer], for which the binding result with PaSBDS [10] (can form intra- and inter-strand base pairs of low stability) is “binds”; with PaRrp41;PaRrp42;PaCsl4 [11], “binds”; with PaRrp41;PaRrp42;PaRrp4 [12], “binds”; with PaRrp41;PaRrp42 [13] it was “binds”.

Consider CCCCCCCCCCCCC (ssRNA) [poly-rC 13-mer], for which the binding result with PaSBDS [10] (single strand) was “no binding”.

Source of the values: PMC2890523, “Identification of archaeal proteins that affect the exosome function in vitro”.
